Reference: the DeepSol protein solubility set

Assay: soluble on expression in E. coli; label from the status in PepcDB or PDB records

| Sequence | soluble on expression in E. coli |
| --- | --- |
| MDKVIFYSNIRNLIFKKCSIQFLIINDTVAHKEQVAMREMNQLVNTEDSAWPIIQNWLKDATNHTELLPVNKDLAETALYQLQVTTKSPMGALVYGSGGLLIDNGLEHHHHHH | not soluble |
| MTLDVGPEDELPDWAAAKEFYQKYDPKDVIGRGVSSVVRRCVHRATGHEFAVKIMEVTAERLSPEQLEEVREATRRETHILRQVAGHPHIITLIDSYESSSFMFLVFDLMRKGELFDYLTEKVALSEKETRSIMRSLLEAVSFLHANNIVHRDLKPENILLDDNMQIRLSDFGFSCHLEPGEKLRELCGTPGYLAPEILKCSMDETHPGYGKEVDLWACGVILFTLLAGSPPFWHRRQILMLRMIMEGQYQFSSPEWDDRSSTVKDLISRLLQVDPEARLTAEQALQHPFFERCEGSQPWNLTPRQRFRVAVWTVLAAGRVALSTHRVRPLTKNALLRDPYALRSVRHLIDNCAFRLYGHWVKKGEQQNRAALFQHRPPGPFPIMGPEEEGDSAAITEDEAVLVLG | soluble |
| MGSDKIHHHHHHMKIDTLGVQAFVAIADGGSFRQAADTLHVTQTAITQRLRKLESFLGVALVERTTRRTTLTEIGRRFLPQARRLLNELSDALTEIRETGLSQRGDVTIACVPTVGVQYLPRILRAFSGHRPHDRVKILDHASASVLQAVLRREAEFGISIAGDQHPELVSVPLTHDPYVLVCRDDHPLAKRRRIRWAALQPHPLIFAGEVSGNRGLLDGALKTSGVSLHSFYEVQRSSTALGLVAEGLGAAVVPKLAVQKNAYPMIRTIELVEPSVSRTLVLVKRKAAQLSPAAQALYDMIVERATPGR | not soluble |
| MPYKAKSDLPDNVRNVLPAHAQDIYKEAFNSAWEQYKDKADRRDDASREETAHKVAWAAVKNDYEKGEDDKWHKKK | not soluble |
| MRTVSTVAELRAALPREGVGFVPTMGYLHRGHLALVERARRENPFVVVSVFVNPLQFGPGEDYHRYPRDLERDRALLQEAGVDLLFAPGVEEMYPEGFATRVQVEGPLTALWEGAVRPGHFQGVATVVARLFLLVQPQRAYFGEKDYQQLLVVRRMVRDLGFPVEVVGVPTVREEDGLALSSRNVYLSPETRKKAPVLYRALLAMREVAGQGGSVAEALRAGEEALRAVPEFRKDYLAIVHPETLLPLSDWVAGARGIVAGRFPEARLIDNLEVYP | soluble |
| TLTIYPAAKPNGLAVVACPGGGYIRLAMNHEGHDMADWFNAQGITYAVLKYRMPNGHHDVPLSDAHQAIRLMREHANEWHIQKVGIMGASAGGHLASTAATHYTAGTRPDFQILFYPVISMDLSNCHKGSRDNLLGKSPSEELVRLYSNELQVTGDTPPAFIMHSSDDGAVPVSNSVSYYLALVKNKVPASLHTYPIGGHGWGFRDSFTYKRQWTGELEKWLREIL | not soluble |
| GSHGMRVIIAGFGRFGQITGRLLLSSGVKMVVLDHDPDHIETLRKFGMKVFYGDATRMDLLESAGAAKAEVLINAIDDPQTNLQLTEMVKEHFPHLQIIARARDVDHYIRLRQAGVEKPERETFEGALKTGRLALESLGLGPYEARERADVFRRFNIQMVEEMAMVENDTKARAAVYKRTSAMLSEIITEDREHLSLIQRHGWQGTEEGKHTGNMADEPETKPSSTSGGLVPRGSSGMILIIYAHPYPHHSHANKRMLEQARTLEGVEIRSLYQLYPDFNIDIAAEQEALSRADLIVWQHPMQWYSIPPLLKLWIDKVFSHGWAYGHGGTALHGKHLLWAVTTGGGESHFEIGAHPGFDVLSQPLQATAIYCGLNWLPPFAMHCTFICDDETLEGQARHYKQRLLEWQEAHHG | soluble |
| MELLCCEGTRHAPRAGPDPRLLGDQRVLQSLLRLEERYVPRASYFQCVQREIKPHMRKMLAYWMLEVCEEQRCEEEVFPLAMNYLDRYLSCVPTRKAQLQLLGAVCMLLASKLRETTPLTIEKLCIYTDHAVSPRQLRDWEVLVLGKLKWDLAAVIAHDFLAFILHRLSLPRDRQALVKKHAQTFLALCATDYTFAMYPPSMIATGSIGAAVQGLGACSMSGDELTELLAGITGTEVDCLRACQEQIEAALRESLREASQTSSSPAPKAPRGSSSQGPSQTSTPTDVTAIHLLEHHHHHH | not soluble |
| GSWDWNLITGEVCWSDELYHIFGRSPQESGATYDEFLSYVHPDDRDRVDNALKKGLNGESVAGNYRIILGDGEERIVRTEAEVVFDEK | not soluble |
| MTYPIPKPREKSRWPNLSQGSLPLALARYLPHKRLKVVLTQDAEQALRLQTAWRFFRPHDTAVFLPDWETLPYERFSPHQDLVSERLSALWQIKSGAADVLFVPVATAMQKLPPVPFLAGRTFWLKTGQTLDIGRLKSDLVDAGYNHVSHVVAAGEFAVRGGIVDLFPMGSEMPYRIDLFDDEIDSIKTFDTETQRTISPVSEIRLLPAHEFPTDSEAQKIFRSRFREEVDGNPNDAAVYKAVSNGHFGAGVEYYLPLFFENELETLFDYIGEDALFVSLDDVHAEANRFWSDVKSRYAMAQGDETYPPLLPQYLYLSADVFAGRLKNYGQVLPDVSGKEYTLPDLAVNRQADEPLQALKDFQTAFDGRILLCAESLGRRETMLGFLQQNGLKAKPVSDWQGFLSAHEPLMITVAPLAYGFKLGGLQSPNQQQPTPSPVGEGWGEGKAVAAQTEFSAAAINPLPSPLPQEREQSAAAVSDSLKAAAVSTESSLPLGTSNLHGQIRQQPAPSPVGEGWGEGKAVAAQTEFPASATNPLPSPLPQEREQSAAAVSDDLKTKSSLHPVANNLHGQIRQQPTPSPVGEGWGEGKAVAAQTEFSAAATNPLPSPLPQEREQSAAVVSDSLKAAAVSTESSLPPGKSNLHGQIQQQPAPSPVGEGWGEGKAVAAQSAIAVITESDLYQYVARSRIHNRRKKHAAVSDGLLRDLAEINIGDPVVHEEHGIGRYMGLVTMDLGGETNEMMLLEYAGEAQLYVPVSQLHLISRYSGQAHENIALHKLGSGAWNKAKRKAAEKARDTAAELLNLYAQRAAQSGHKFEINELDYQAFADGFGYEETEDQAAAIAAVIKDLTQAKPMDRLVCGDVGFGKTEVALRAAFVAVMGGKQVAVLAPTTLLVEQHAQNFADRFADFPVKVASLSRFNNSKATKAALEGMADGTVDIVIGTHKLVQDDIKFKNLGLVIIDEEHRFGVRQKEQLKRLRANVDILTMTATPIPRTLSMALEGLRDFSLITTAPSRRLAVKTFVKPFSEGSVREAVLRELKRGGQVFFLHNEVDTIENMRERLETLLPEARIGVAHGQLRERELEQVMRDFLQQRFNVLLCSTIIETGIDIPNANTIIINRADKFGLAQLHQLRGRVGRSHHQAYAYLLTPEYITKDAEKRLDAIAAADELGAGFTLAMQDLEIRGAGEILGEGQSGEMIQVGFTLYTEMLKQAVRDLKKGRQPDLDAPLGITTEIKLHSPALLPEDYCPDIHERLVLYKRLAVCETVQQINTIHEELVDRFGLPEQPVKTLIESHHLRLMAKELGIDAIDAAGEAVTVTFGKNNNVDPTEIILLIQNDKKYRLAGADKLRFTAEMENIEVRINTVKNVLKTLQNRCLPK | not soluble |
| GPGSMSTSQPIVKPFIYLRIPSEDARPVEELHFNGHNEAELRHTLTRCFRQSLLSDDQKKDMARHLADKASESAKKHAVKGNGDASAAGSGAEPPVDVEQQQAAMIDQYLEQASYEIIPVTMPMRSTQYIGTSLYIDDSGAFKDLPLNYRASKLAQREIRGDAFLLSNHDDPALDEWGRVDCPLQRYEELYANPPQIAYDPSNQAQMTQAAMLRETETKKISLEDYEKAQKAKEDGNRLFAANDLPAAVQAYSMTVDLTDGRRDLLPNEEAATQLRLSALLNRCLCFTRLKKFPEAVRDAQAAAYLDPKSMKAYYRLTYALCGAQEYEAAAQACEKYAQLGGAEEDVTAMRTAVAAGETEVKKAQKQIFSKMFRS | soluble |
| MGFKQDIATIRGDLRTYAQDIFLAFLNKYPDERRYFKNYVGKSDQELKSMAKFGDHTEKVFNLMMEVADRATDSVPLASDANTLVQMKQHSSLTTGNFEKLFVALVEYMRASGQSFDSQSWDRFGKNLVSALSSAGMK | soluble |
| MSSPYSPREWLQLNMQQQGLLQPQTSVGQLIACLGYVQIDSINVVERAHHHVLHSRMPQYQPQMLDTALAQGEIFEYWSHAAAYLPIADYRFSLQRKQQLQNGGKHWFEPDDNAMQEVRARIRAEGPLKASDFEHTEGKNGAWWDWKPAKKALEQLFMRGELMVVRREKFQKCYDLTERVLPSHINTLAPSDSEFARHLISRYLDAHAFGSAAQIAYLRKGIKANVNQQLAAMQSQGELASFKAEGQWYFYRPELQITAAMPNRVWLLNPFDNLLIQRQRLKQWFDFDYQIEVYVPAEKRQYGYYSLAILWRDRFVGRVDVKADRQSGLLLLQQLTLEEGFDGMDEGFCSAFEATVSEYARFNICSRWKLVKANHKAFKLEHHHHHH | not soluble |
